Laboratory results from publication PMC10095481, “Sequence-Dependent Interaction of the Human Papillomavirus E2 Protein with the DNA Elements on Its DNA Replication Origin”.

Key:
[1] = target: T1, HPV-11 E2 (full length) (Human papillomavirus type 11, UniProt P04015 1-367); assay: competition; unlabeled competitor vs 32P-BS1; EMSA: 10 mM HEPES pH 7.9, 50 mM NaCl, 4 mM MgCl2, 10% glycerol, 5 mM DTT, 0.2 mM EDTA, 0.1 mg/mL BSA, 10 ng/uL poly(dI-dC), 10 min 30 C; details: protein: recombinant; tags: N-terminal His (pET28a); chain copies: 2; label: 32P
[2] = target: T1, HPV-11 E2 (full length); assay: EMSA; 35 C; EMSA: 10 mM HEPES pH 7.9, 50 mM NaCl, 4 mM MgCl2, 10% glycerol, 5 mM DTT, 0.2 mM EDTA, 0.1 mg/mL BSA, 10 ng/uL poly(dI-dC), 10 min 30 C; details: protein: recombinant; tags: N-terminal His (pET28a); chain copies: 2; label: 32P
[3] = target: T1, HPV-11 E2 (full length); assay: EMSA; 10 C; EMSA: 10 mM HEPES pH 7.9, 50 mM NaCl, 4 mM MgCl2, 10% glycerol, 5 mM DTT, 0.2 mM EDTA, 0.1 mg/mL BSA, 10 ng/uL poly(dI-dC), 10 min 30 C; details: protein: recombinant; tags: N-terminal His (pET28a); chain copies: 2; label: 32P
[4] = target: T1, HPV-11 E2 (full length); assay: EMSA; flank experiment WT; EMSA: 10 mM HEPES pH 7.9, 50 mM NaCl, 4 mM MgCl2, 10% glycerol, 5 mM DTT, 0.2 mM EDTA, 0.1 mg/mL BSA, 10 ng/uL poly(dI-dC), 10 min 30 C; details: protein: recombinant; tags: N-terminal His (pET28a); chain copies: 2; label: 32P
[5] = target: T1, HPV-11 E2 (full length); assay: EMSA; 30 C; EMSA: 10 mM HEPES pH 7.9, 50 mM NaCl, 4 mM MgCl2, 10% glycerol, 5 mM DTT, 0.2 mM EDTA, 0.1 mg/mL BSA, 10 ng/uL poly(dI-dC), 10 min 30 C; details: protein: recombinant; tags: N-terminal His (pET28a); chain copies: 2; label: 32P
[6] = target: T1, HPV-11 E2 (full length); assay: EMSA; apparent Kd; EMSA: 10 mM HEPES pH 7.9, 50 mM NaCl, 4 mM MgCl2, 10% glycerol, 5 mM DTT, 0.2 mM EDTA, 0.1 mg/mL BSA, 10 ng/uL poly(dI-dC), 10 min 30 C; details: protein: recombinant; tags: N-terminal His (pET28a); chain copies: 2; label: 32P
[7] = target: T1, HPV-11 E2 (full length); assay: EMSA; 20 C; EMSA: 10 mM HEPES pH 7.9, 50 mM NaCl, 4 mM MgCl2, 10% glycerol, 5 mM DTT, 0.2 mM EDTA, 0.1 mg/mL BSA, 10 ng/uL poly(dI-dC), 10 min 30 C; details: protein: recombinant; tags: N-terminal His (pET28a); chain copies: 2; label: 32P
[8] = target: T1, HPV-11 E2 (full length); assay: EMSA; 0 C; EMSA: 10 mM HEPES pH 7.9, 50 mM NaCl, 4 mM MgCl2, 10% glycerol, 5 mM DTT, 0.2 mM EDTA, 0.1 mg/mL BSA, 10 ng/uL poly(dI-dC), 10 min 30 C; details: protein: recombinant; tags: N-terminal His (pET28a); chain copies: 2; label: 32P
[9] = target: T1, HPV-11 E2 (full length); assay: EMSA; affinity similar to BS1+2; C1, C2 and C3; EMSA: 10 mM HEPES pH 7.9, 50 mM NaCl, 4 mM MgCl2, 10% glycerol, 5 mM DTT, 0.2 mM EDTA, 0.1 mg/mL BSA, 10 ng/uL poly(dI-dC), 10 min 30 C; details: protein: recombinant; tags: N-terminal His (pET28a); chain copies: 2; label: 32P
[10] = target: T1, HPV-11 E2 (full length); assay: EMSA; EMSA: 10 mM HEPES pH 7.9, 50 mM NaCl, 4 mM MgCl2, 10% glycerol, 5 mM DTT, 0.2 mM EDTA, 0.1 mg/mL BSA, 10 ng/uL poly(dI-dC), 10 min 30 C; details: protein: recombinant; tags: N-terminal His (pET28a); chain copies: 2; label: 32P
[11] = target: T1, HPV-11 E2 (full length); assay: EMSA; single complex C1; EMSA: 10 mM HEPES pH 7.9, 50 mM NaCl, 4 mM MgCl2, 10% glycerol, 5 mM DTT, 0.2 mM EDTA, 0.1 mg/mL BSA, 10 ng/uL poly(dI-dC), 10 min 30 C; details: protein: recombinant; tags: N-terminal His (pET28a); chain copies: 2; label: 32P
[12] = target: T1, HPV-11 E2 (full length); assay: EMSA; C1, C2 and C3 complexes; EMSA: 10 mM HEPES pH 7.9, 50 mM NaCl, 4 mM MgCl2, 10% glycerol, 5 mM DTT, 0.2 mM EDTA, 0.1 mg/mL BSA, 10 ng/uL poly(dI-dC), 10 min 30 C; details: protein: recombinant; tags: N-terminal His (pET28a); chain copies: 2; label: 32P
[13] = target: T1, HPV-11 E2 (full length); assay: EMSA; no complex at 80 nM E2; EMSA: 10 mM HEPES pH 7.9, 50 mM NaCl, 4 mM MgCl2, 10% glycerol, 5 mM DTT, 0.2 mM EDTA, 0.1 mg/mL BSA, 10 ng/uL poly(dI-dC), 10 min 30 C; details: protein: recombinant; tags: N-terminal His (pET28a); chain copies: 2; label: 32P
[14] = target: T2, recombinant full-length HPV type 11 E2 protein (human papillomavirus type 11), P04015; assay: dynamic light scattering; purified E2 in solution at low (≤0.1 mg/mL) protein concentration; solvent set as 10% glycerol; three separate measurements; monomer to dimer; details: remark: other sources report otherwise
T2 chain: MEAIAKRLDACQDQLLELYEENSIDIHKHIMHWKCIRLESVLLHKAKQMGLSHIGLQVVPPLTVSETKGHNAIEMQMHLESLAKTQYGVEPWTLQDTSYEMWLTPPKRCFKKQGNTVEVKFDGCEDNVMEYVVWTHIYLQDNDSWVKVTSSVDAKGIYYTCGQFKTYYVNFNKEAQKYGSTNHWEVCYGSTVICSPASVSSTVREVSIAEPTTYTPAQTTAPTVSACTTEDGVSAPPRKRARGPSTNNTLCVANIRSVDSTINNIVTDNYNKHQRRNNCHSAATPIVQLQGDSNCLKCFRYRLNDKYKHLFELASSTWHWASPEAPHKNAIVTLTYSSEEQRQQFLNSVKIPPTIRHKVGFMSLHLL

[15] = target: T1, HPV-11 E2 (full length); assay: EMSA; spacer experiment WT (TTTT); EMSA: 10 mM HEPES pH 7.9, 50 mM NaCl, 4 mM MgCl2, 10% glycerol, 5 mM DTT, 0.2 mM EDTA, 0.1 mg/mL BSA, 10 ng/uL poly(dI-dC), 10 min 30 C; details: protein: recombinant; tags: N-terminal His (pET28a); chain copies: 2; label: 32P

B1: BS1 (dsDNA)
DNA 1: GGTTCAACCGAAAACGGTTATATG
DNA 2: CATATAACCGTTTTCGGTTGAACC
B1 was tested, and the Kd [1] was 6.2 ± 1.4 nM, the Kd [2] was 5.7 ± 1.1 nM and the Kd [3] was 5.5 ± 1.5 nM. It also gave a Kd [4] of 6 ± 0.7 nM, a Kd [5] of 5.3 ± 0.4 nM and a Kd [6] of 6.2 ± 0.9 nM. For the same binder, the Kd [7] was 6.2 ± 1.4 nM and the Kd [8] was 7.3 ± 0.7 nM.

B2: BS1+2+E1BS (124 bp) (dsDNA)
DNA 1: GTAACCCACACCCTACATATTTCCTTCTTATACTTAATAACAATCTTATTTAAAAAAGAGGAGGGACCGAAAACGGTTCAACCGAAAACGGTTATATATAAACCAGCCCAAAAAATTAGCAGA
DNA 2: TCTGCTAATTTTTTGGGCTGGTTTATATATAACCGTTTTCGGTTGAACCGTTTTCGGTCCCTCCTCTTTTTTAAATAAGATTGTTATTAAGTATAAGAAGGAAATATGTAGGGTGTGGGTTAC
B2: binds [9].

B3: BS1 3' mutant (dsDNA)
DNA 1: GGTTCAACCGAAAACGGTTACCCA
DNA 2: TGGGTAACCGTTTTCGGTTGAACC
B3 was tested, and the Kd [10] was 7.6 ± 0.6 nM.

B4: BS1 (50 bp) (dsDNA)
DNA 1: GGAGGGATTGAAAACTTTTCAACCGAAAACGGTTATATATAAACCAGCCC
DNA 2: GGGCTGGTTTATATATAACCGTTTTCGGTTGAAAAGTTTTCAATCCCTCC
B4 showed a Kd [11] of 5.3 ± 0.6 nM.

B5: BS1+2 (50 bp) (dsDNA)
DNA 1: GGCGGGACCGAAAACGGTTCAACCGAAAACGGTTATATATAAACCAGCCC
DNA 2: GGGCTGGTTTATATATAACCGTTTTCGGTTGAACCGTTTTCGGTCCCGCC
Binder B5 has a Kd [12] of 4.2 ± 0.3 nM.

B6: BS3 (dsDNA)
DNA 1: CCTGCAACCGGTTTCGGTTACCCA
DNA 2: TGGGTAACCGAAACCGGTTGCAGG
Work on B6 yielded a Kd [6] of 10.2 ± 1.7 nM.

B7: Non-specific (dsDNA)
DNA 1: TGGCGGACCCCACCCAGCCCCACGCGCA
DNA 2: TGCGCGTGGGGCTGGGTGGGGTCCGCCA
B7: no binding [13].

B8: recombinant full-length HPV type 11 E2 protein, P04015 1-367 (natural protein)
chain: MEAIAKRLDACQDQLLELYEENSIDIHKHIMHWKCIRLESVLLHKAKQMGLSHIGLQVVPPLTVSETKGHNAIEMQMHLESLAKTQYGVEPWTLQDTSYEMWLTPPKRCFKKQGNTVEVKFDGCEDNVMEYVVWTHIYLQDNDSWVKVTSSVDAKGIYYTCGQFKTYYVNFNKEAQKYGSTNHWEVCYGSTVICSPASVSSTVREVSIAEPTTYTPAQTTAPTVSACTTEDGVSAPPRKRARGPSTNNTLCVANIRSVDSTINNIVTDNYNKHQRRNNCHSAATPIVQLQGDSNCLKCFRYRLNDKYKHLFELASSTWHWASPEAPHKNAIVTLTYSSEEQRQQFLNSVKIPPTIRHKVGFMSLHLL
B8 gave a stoichiometry N [14] of 2.

B9: BS1 5' mutant (dsDNA)
DNA 1: CCTGCAACCGAAAACGGTTATATG
DNA 2: CATATAACCGTTTTCGGTTGCAGG
B9 was tested, and the Kd [10] was 6.4 ± 0.6 nM.

B10: BS4 with GTTT spacer (dsDNA)
DNA 1: CTTGCAACCGGTTTCGGTTGCCCT
DNA 2: AGGGCAACCGAAACCGGTTGCAAG
B10 gave a Kd [10] of 6.4 ± 0.6 nM.

B11: BS4 (dsDNA)
DNA 1: CTTGCAACCGTTTTCGGTTGCCCT
DNA 2: AGGGCAACCGAAAACGGTTGCAAG
Work on B11 yielded a Kd [1] of 4.6 ± 0.4 nM, a Kd [15] of 4.4 ± 0.4 nM and a Kd [6] of 4.8 ± 0.7 nM.

B12: BS2 (dsDNA)
DNA 1: GGAGGGACCGAAAACGGTTCAACC
DNA 2: GGTTGAACCGTTTTCGGTCCCTCC
B12 showed a Kd [1] of 6 ± 0.6 nM and a Kd [6] of 7.8 ± 0.7 nM.

B13: BS1 5'+3' mutant (dsDNA)
DNA 1: CCTGCAACCGAAAACGGTTACCCA
DNA 2: TGGGTAACCGTTTTCGGTTGCAGG
B13 gave a Kd [10] of 7.7 ± 1.7 nM.
